± gives the half width of the 95% confidence interval.
Assays:
[1] = folding stability dG unfold from trypsin proteolysis; higher = more stable
Outline: (§1)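 Unfolding free energy was derived, per protease or combined, by relating Bayesian-fitted K50 values from sequencing counts to a sequence-predicted unfolded-state K50 and a shared folded-state K50. The underlying digests exposed cysteine-free mini-proteins under 80 residues, in a PA-tagged cDNA display construct, to trypsin and chymotrypsin at 11 threefold-diluted concentrations and to a no-protease condition. A filter kept only designs with AlphaFold2 dimer inter-PAE above 15.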

[2] = folding stability dG unfold from chymotrypsin proteolysis; higher = more stable
Outline: as §1

[3] = folding stability dG unfold (combined trypsin and chymotrypsin); higher = more stable
Outline: as §1

Sequence	folding stability dG unfold [1] [kcal/mol]	folding stability dG unfold [2] [kcal/mol]	folding stability dG unfold [3] [kcal/mol]
SAGGMSLEHVTEIVETVTHPDGTKTVTIRLSDPAIWAGEDPATAAALAEAVQAEHADEGVAVTVVGAPSAGG [r13_243_JUSTAS]	-0.642 ± 0.26	1.05 ± 0.042	0.585 ± 0.15
SAGGMSPDQIWKAKLLSRKKGKNGSVYNIVIYNPDNPKPIFINKPGDNPEDVLKELEELVKKGPIDLESAGG [r13_286_TrMRF]	0.354 ± 0.22	0.549 ± 0.21	0.468 ± 0.18
SAGGMSVSFPVDSSEELKKLLPKDYLVEIVSTPPDGSKSVRVVRPEDLEIDLPEGEKYYFEIKFLPKESAGG [r13_461_TrMRF]	0.442 ± 0.072	-0.138 ± 0.093	0.203 ± 0.19
SAGGMSVTVSTHLSPEELRELVREIVEKNPGLEVKAVEVTDPATGEWRAVPLDEVPADRPVTVRVDLSRSAG [r5_357_JUSTAS]	0.506 ± 0.091	0.388 ± 0.12	0.495 ± 0.12
SAGGMTEVSVSEELRAEGGGLERVLVVTITTVTKVYPVGSSNKVEYEESTIVIPADDPAALEAAGVLLSAGG [r13_670_JUSTAS]	0.563 ± 0.07	-0.319 ± 0.36	0.257 ± 0.16
SAGGMTIFLPLENKEEVIEKLKKEGYKPVEVKEEGDVVTIKVEKKKDEKKEEITIVFYPPSKPEEPVSAGGS [r8_307_JUSTAS]	2.77 ± 0.14	2.59 ± 0.085	2.68 ± 0.1
SAGGMTITFTLEFDLEDDRRITVTATIDPTGDDVLITVRVELTLPNGEKLEFTATIVLPPGAHPDELISAGG [r13_3_TrMRF]	4.15 ± 0.38	5.25 ± 0.24	5.53 ± 0.85
SAGGMTITVKPPDGTVITYTSETLPEIIAKLDPNGTYTITIEVPKVDPSNGGARPIVKTYTVPKERISAGGS [r16_806_JUSTAS]	0.865 ± 0.11	1.21 ± 0.17	1.19 ± 0.17
SAGGMTITVPVDEEEAEEFIREATGELTALAEKYPDVPIEIEFPLKSGRVIRLRVYPKSKKVEIEVYDSAGG [r13_216_TrMRF]	2.48 ± 0.057	2.559 ± 0.024	2.57 ± 0.045
SAGGMTITVRVKAENPEEAIKKVEETVRSLGYRVVELKEVEVRYDEATGEVFVEATVEVEPLPEEEGSAGGS [r16_155_TrMRF]	4.37 ± 0.13	4.81 ± 0.12	4.8 ± 0.12
SAGGMTITVTVGPGKEEEAVEALKKKTGLKVELVETTPRPVRAPDGTVLEEVEEITIKITKPDPNLKESAGG [r13_943_JUSTAS]	-0.511 ± 0.21	-0.269 ± 0.2	-0.638 ± 0.45
SAGGMTKEKALELAEEIAREFAKKHGIEKLELKVEDVVEKEDEVIVRLKIVYPDKVYELDLVVPKDYVSAGG [r13_611_TrMRF]	2.69 ± 0.11	4.06 ± 0.13	3.7 ± 0.19
SAGGMTLEELAARVGRVEVEEAEDGGRVLRVTIPLAGPGGPPAPRTFLIEIPPDRPDLTIAEVLARLGSAGG [r13_319_TrMRF]	1.38 ± 0.064	1.84 ± 0.057	1.66 ± 0.07
SAGGMTLEELKAKITKVEVEEREDGSLKLRLTIKVKNEDGSEEEIELTITLPEEEKNMSLEELLEKLLSAGG [r13_319_TrROS_Hall]	4.26 ± 0.27	3.82 ± 0.12	4.03 ± 0.13
SAGGMTLKIRVKDKEKALEALKALPGIEVKEVKVEKNENGELTVTVESKEALDALKKAGIEVEEIEPSAGGS [r16_381_TrROS_Hall]	2.33 ± 0.15	3.18 ± 0.087	2.9 ± 0.16
SAGGMTLNITVEIPGLGTTITKTFSANPSDYEKIARETEEENPEYKLTSVKVTYSPNSITIDATVELVSAGG [r13_196_JUSTAS]	1.38 ± 0.17	2.38 ± 0.057	2.04 ± 0.21
SAGGMTLTIEIVVPPGTTVEELKKALEELGYEITSIEVEYDPETDLVTVRMEIRLPPPPPVSEEEKKSAGGS [r16_584_TrROS_Hall]	1.87 ± 0.076	3.23 ± 0.16	2.73 ± 0.17
SAGGMTLTLIVPSKEEAERLAEALRALLPPGAKLEITVEEVTLKEDLPPDLPEVKEKKYLVVTIRLDSAGGS [r16_795_TrROS_Hall]	3.03 ± 0.14	3.5 ± 0.08	3.34 ± 0.1

Sequence	folding stability dG unfold [1] [kcal/mol]	folding stability dG unfold [2] [kcal/mol]	folding stability dG unfold [3] [kcal/mol]
SAGGMTLTLVLEANPPEAVEVAVARLLRELGFPDELKIEIDPVGDDKGRIIYPVTIEVNVPELAEKASAGGS [r8_85_TrMRF]	2.19 ± 0.042	2.62 ± 0.036	2.41 ± 0.13
SAGGMTLTVDEIKELLKKGYSLEEIKEALKKAGFEIVEIKKIEKKDGKIYIEIEFKKNKKIIKIEIPSAGGS [r8_179_TrROS_Hall]	3.38 ± 0.24	4.35 ± 0.18	4.2 ± 0.35
SAGGMTLVLRFPSKEEALEALRELAEALGLEVEITKIEIEEREVEDPETGEKRREVLITIEVKVKPPSAGGS [r16_587_TrROS_Hall]	3.83 ± 0.37	4.62 ± 0.14	4.48 ± 0.29
SAGGMTPEEARKLAEELAKKLEEEGKEVEVKVEVNKDGKVVKIEIKPEGEKVTITLPDGEKVLELELPSAGG [r13_693_TrROS_Hall]	1.09 ± 0.048	1 ± 0.089	1.03 ± 0.25
SAGGMTPEELEAAARAAAAALRAELEAGDPDVEVDLEVDPEKGTATFTVTDRATGRPRTLTVPFAELASAGG [r13_354_JUSTAS]	0.871 ± 0.074	1.94 ± 0.054	1.53 ± 0.073
SAGGMTTLTLETTDEGKPLGLEEILARLREALPGVPVEVLSADPAKGVVTIAVAPEAVPEIERAVAASAGGS [r8_235_JUSTAS]	1.69 ± 0.038	2.1 ± 0.022	1.96 ± 0.074
SAGGMTTTTTTYTIQLPNGETLTITITTTTLPGGITVTIPIGGTSPDQIAIAKELAEKLAAEIKEAASAGGS [r8_416_JUSTAS]	2.89 ± 0.096	3.83 ± 0.1	3.55 ± 0.11
SAGGMTTTTVEVKRLPNGSIERTLKTTVPLPNGDLVVTTTKSIVYREDGKVVKEEVLETETTLLPATSAGGS [r8_36_JUSTAS]	2.58 ± 0.082	2.92 ± 0.077	2.77 ± 0.074
SAGGMTVTLEIEIPAEELSEEELKALLEELFPNAEVTVERLPDGTLRITIRVEVPPAPPEVVVLPDKSAGGS [r16_535_TrROS_Hall]	2.63 ± 0.082	2.97 ± 0.12	2.88 ± 0.12
SAGGMTVTVKVKPDEYVIVEIENPVLDSTLTYVVPFNSPMTVTLPLPPDYKVKKITVVSPKKVSKELLSAGG [r13_119_JUSTAS]	1.22 ± 0.013	2.05 ± 0.059	1.78 ± 0.059
SAGGMTYVLPNGERLLVRVSVRTEPRLDPDRPELVLEPRVEIELFAVSPDLTLRPVPEELARELFEKESAGG [r13_809_TrMRF]	0.891 ± 0.019	1.33 ± 0.07	1.21 ± 0.044
SAGGMVDIYFPDAVIDDSGTKEDILEQLEKVTGKPIPEELREEILKGKTVEEIVELLKKRGFDVRVDSAGGS [r16_601_TrMRF]	2.8 ± 0.12	3.4 ± 0.059	3.13 ± 0.12
SAGGMVEIELEVDGKKIKITYDKETGKITIEIDGKKIEVELPEEDKGKSKEELLKKALEKAKEELKKSAGGS [r16_215_TrROS_Hall]	2.46 ± 0.23	2.46 ± 0.11	2.49 ± 0.11
SAGGMVEVKPFEIKPPGSSITVTLTDPQGNVIGSTTVSVPTGRLELTITVEPDKTVKVTLTELPPSEVSAGG [r13_935_JUSTAS]	1.42 ± 0.086	-0.262 ± 0.34	1.01 ± 0.13
SAGGMVIVIKTPGGASELEIGDLTITTNPDTGLRVAEATPEQIEELLKADALKDIEEIEVLPIEELLSAGGS [r8_493_TrMRF]	0.406 ± 0.047	-0.0529 ± 0.038	0.243 ± 0.11
SAGGMVKIVRVTFEDGRELVLTEPEKIEEFLKKALGPNFVIKEVREGYVPHPDGPPIPTFELVVERPSAGGS [r16_408_TrMRF]	2.11 ± 0.053	2.65 ± 0.021	2.44 ± 0.042
SAGGMVKVLKVETYPGTGEVIVTMELPGNTVATVRIPRAPDAPLTVSPDGVVTVPTAPVTELETTAPSAGGS [r16_515_JUSTAS]	-0.276 ± 0.053	0.591 ± 0.054	0.322 ± 0.049
SAGGMVLVEPSPDAVVRVIEREGDLARVTVYDPRSGARTVELVPIAPTGKGGVRLETLEVRVLPDAEASAGG [r13_556_JUSTAS]	-0.136 ± 0.035	-0.0954 ± 0.048	-0.0934 ± 0.057
